In patent US9872893B2, “Endolysins active against Staphylococcus bacteria, pharmaceutical compositions, and methods relating thereto” (priority 2014, dated 2018):

Legend:
S. aureus NRS-14 = experiment: cell wall binding by fluorescence microscopy; set-up: species or system Staphylococcus aureus; conditions: 10 μg, detected via anti-His antibody and AlexaFluor 488 secondary
Procedure: An overnight culture of S. aureus NRS-14 was concentrated 5× in BP buffer and was incubated at room temperature with 10 μg SH3_5GRCS containing the 6× His tag for 10 minutes. A control without SH3_5GRCS was also utilized. The samples were washed with PBS and incubated for 10 minutes at room temperature with 1 μl mouse anti-His antibody (Gen Script). After washing with PBS, AlexaFluor-488 conjugated goat anti-mouse IgG (H+L) antibody (1 μl) (Invitrogen) was incubated with samples for an additional 10 minutes. Samples were washed again with PBS before being visualized via fluorescence and bright field microscopy. An Eclipse 80i epifluorescent microscope workstation (Nikon) with X-Cite 120 illuminator (EXFO) and Retiga 2000R CCD camera was used. NIS-Elements software (Nikon) was used for image analysis.

[1] = system: stationary phase S. aureus NRS-14; experiment: turbidity reduction assay (lytic activity); format: cell-based, Staphylococcus aureus; conditions: equimolar concentrations; for lytic activity (in words): isolated domain
Procedure: Lytic activity was based on turbidity reduction assay (Nelson D C et al. (2012) Endolysins as antimicrobials. Adv Virus Res 83:299-365). Briefly, bacterial cells were centrifuged (4,000 RPM, 5 minutes, 4° C.), re-suspended in buffer and mixed 1:1 (v/v) with endolysin to a final OD600=1. OD600 readings were taken every 15 seconds for 20 minutes at 37° C. Endolysin activity was equated to the Vmax dictated by the linear portion of the resulting killing curve. Each experiment was performed in triplicate.
To determine dose response, PlyGRCS was serially diluted and each dosage (100 μl) was added in triplicate to a 96-well polystyrene microtiter plate (Nest Biotech Co, Ltd) just before addition of bacterial cells (100 μl) according to the turbidity reduction assay described above. For optimum pH determination, bacterial cells were suspended in 40 mM boric acid/phosphoric acid (BP) buffer, pH 3-11, and were challenged against PlyGRCS. The influence of NaCl on PlyGRCS activity was tested in BP buffer at the experimentally determined pH optimum using the same assay. The effect of divalent cations was determined using the turbidity reduction assay with several modifications. First, PlyGRCS was incubated at room temperature in PBS or PBS supplemented with 5 mM EDTA for 10 minutes. Second, the EDTA-treated samples received either no further treatment, or were supplemented with 6 mM CaCl2 or 6 mM MgCl2. Finally, the lytic active of the samples was then immediately assayed and compared to PlyGRCS in PBS prior to EDTA inactivation. Kinetic stability was evaluated (Son B et al. (2012) Characterization of LysB4, an endolysin from the Bacillus cereus-infecting bacteriophage B4. BMC Microbiol 12:33) with minor modifications. Lytic assays were performed in optimal conditions after PlyGRCS was incubated at indicated temperatures for 30 minutes and subsequently recovered on ice for 5 minutes.

[2] = circular dichroism melting experiments; format: physicochemical; conditions: 0.1 mg/ml, 20 mM sodium phosphate buffer pH 7, 20-95° C. at 1° C./min
Procedure: CD experiments for wild-type (WT) and active-site mutants were performed on a Chirascan CD spectrometer (Applied Photophysics) equipped with a thermoelectrically controlled cell holder. CD spectra were obtained in the far-UV range (190-260 nm) in a 1 mm path length quartz cuvette at 1 nm steps with 5 second signal averaging per data point. Spectra were collected in triplicate, followed by averaging, baseline subtraction, smoothing and conversion to mean residue ellipticity (MRE) by the Pro-Data software (Applied Photophysics). Secondary structure prediction was performed using the Provencher and Glockner method (Provencher S W & Glockner J (1981) Estimation of globular protein secondary structure from circular dichroism. Biochemistry 20(1):33-7) provided by DICHROWEB (Whitmore L & Wallace B A (2004) DICHROWEB, an online server for protein secondary structure analyses from circular dichroism spectroscopic data. Nucleic Acids Res 32:W668-73).
Melting experiments were performed by heating PlyGRCS at a 0.1 mg/ml concentration in 20 mM sodium phosphate buffer pH 7 from 20° C. to 95° C. using a 1° C./min heating rate. MRE was monitored at 218 nm in a 1 mm path length quartz cuvette at 0.5° C. steps with 5 second signal averaging per data point. The melting data was smoothed, normalized and fit with a Boltzmann sigmoidal curve. The first derivative of the melting curve was then taken to determine the temperature (Tm) at which the folded and unfolded protein species in solution were at equilibrium (Fallas J A & Hartgerink J D (2012) Computational design of self-assembling register-specific collagen heterotrimers. Nat Commun 3:1087).

[3] = system: Staphylococcus aureus, NRS-384; experiment: plate lysis assay (spectrum of lytic activity); format: cell-based; set-up: key to strength of lytic zone: strong lytic zone = ++; weak lytic zone = +; no lytic zone = −; conditions: 6 μg
Procedure: (§1) The PlyGRCS spectrum of lytic activity was performed (Schmelcher M et al. (2012) Chimeric phage lysins act synergistically with lysostaphin to kill mastitis-causing Staphylococcus aureus in murine mammary glands. Appl Environ Microbiol 78(7):2297-305) with minor modifications. Bacterial cells were diluted in sterile PBS to an OD600=1, and 100 μl was spread on each plate. 10 μl spots (600 μg/ml) of PlyGRCS or CHAPGRCS were applied. Plates were incubated overnight at 37° C. Strength of lytic zones was defined qualitatively.

[4] = system: Staphylococcus aureus, NRS-71; experiment: plate lysis assay (spectrum of lytic activity); format: cell-based; set-up: key to strength of lytic zone: strong lytic zone = ++; weak lytic zone = +; no lytic zone = −; conditions: 6 μg
Procedure: as §1

[5] = system: Staphylococcus epidermidis, NRS-101; experiment: plate lysis assay (spectrum of lytic activity); format: cell-based; set-up: key to strength of lytic zone: strong lytic zone = ++; weak lytic zone = +; no lytic zone = −; conditions: 6 μg
Procedure: as §1

[6] = system: Staphylococcus aureus, NRS-14; experiment: plate lysis assay (spectrum of lytic activity); format: cell-based; set-up: key to strength of lytic zone: strong lytic zone = ++; weak lytic zone = +; no lytic zone = −; conditions: 6 μg; S. aureus NRS-14, VISA
Procedure: as §1

[7] = system: Staphylococcus aureus, NRS-385; experiment: plate lysis assay (spectrum of lytic activity); format: cell-based; set-up: key: strong lytic zone = ++; weak lytic zone = +; no lytic zone = −; conditions: 6 μg; S. aureus NRS-385, MRSA
Procedure: as §1

Bacillus pumulis, BJ0055 = experiment: plate lysis assay (spectrum of lytic activity); format: cell-based; set-up: key: strong lytic zone = ++; weak lytic zone = +; no lytic zone = −; conditions: 6 μg
Procedure: as §1

[8] = system: Streptococcus uberis, ATCC 700407; experiment: plate lysis assay (spectrum of lytic activity); format: cell-based; set-up: key: strong lytic zone = ++; weak lytic zone = +; no lytic zone = −; conditions: 6 μg
Procedure: as §1

[9] = system: Enterococcus facealis, EF24; experiment: plate lysis assay (spectrum of lytic activity); format: cell-based; set-up: key: strong lytic zone = ++; weak lytic zone = +; no lytic zone = −; conditions: 6 μg
Procedure: as §1

[10] = system: Staphylococcus aureus, NRS-382; experiment: plate lysis assay (spectrum of lytic activity); format: cell-based; set-up: key: strong lytic zone = ++; weak lytic zone = +; no lytic zone = −; conditions: 6 μg; S. aureus NRS-382, MRSA
Procedure: as §1

[11] = system: Streptococcus pneumoniae, ATCC BAA-334; experiment: plate lysis assay (spectrum of lytic activity); format: cell-based; set-up: key: strong lytic zone = ++; weak lytic zone = +; no lytic zone = −; conditions: 6 μg
Procedure: as §1

[12] = system: Streptococcus suis, 730082; experiment: plate lysis assay (spectrum of lytic activity); format: cell-based; set-up: key: strong lytic zone = ++; weak lytic zone = +; no lytic zone = −; conditions: 6 μg
Procedure: as §1

[13] = system: Streptococcus pyogenes, D471; experiment: plate lysis assay (spectrum of lytic activity); format: cell-based; set-up: key: strong lytic zone = ++; weak lytic zone = +; no lytic zone = −; conditions: 6 μg
Procedure: as §1

[14] = system: Streptococcus equi, ATCC 9528; experiment: plate lysis assay (spectrum of lytic activity); format: cell-based; set-up: key: strong lytic zone = ++; weak lytic zone = +; no lytic zone = −; conditions: 6 μg
Procedure: as §1

B1: SH3_5GRCS: PlyGRCS cell wall binding SH3_5 domain, amino acids 150-250, SEQ ID NO: 7 (protein)
chain: NTFGNWKQNQYGTYYRNENATFTCGFLPIFARVGSPKLSEPNGYWFQPNGYTPYDEVCLSDGLVWIGYNWQGTRYYLPVRQWNGKTGNSYSIGLPWGVFS
modifications: Synthetically generated polypeptide (SH3_5GRCS (amino acids 150-250))
- binding to staphylococcal cell wall (S. aureus NRS-14): possessed the ability to specifically bind staphylococci
- binding to staphylococcal cell wall (S. aureus NRS-14; listed as SH3_5 binding domain): interact directly with the staphylococcal cell wall
- lytic activity (in words) [1]: little to no lytic activity
- lytic activity (in words) ([1]; listed as SH3_5 binding domain): lacked activity
- Tm [2]: 44.5 °C

B2: CHAPGRCS: PlyGRCS catalytic CHAP domain, amino acids 1-140, SEQ ID NO: 6 (protein)
chain: MKSQQQAKEWIYKHEGTGVDFDGAYGFQCMDLAVAYVYYITDGKVRMWGNAKDAINNDFKGLATVYENTPSFKPQLGDVAVYTNSQYGHIQCVISGNLDYYTCLEQNWLGGGFDGWEKATIRTHYYDGVTHFIRPKFSAS
modifications: Synthetically generated polypeptide (CHAPGRCS (amino acids 1-140))
- lytic activity relative to full-length PlyGRCS [1]: 8-10%
- lytic activity relative to full-length PlyGRCS ([1]; listed as CHAP domain): about 10%
- lytic activity on plates (in words) ([3]; S. aureus NRS-384): relatively weak clearing zones
- strength of lytic zone ([3]; S. aureus NRS-384, MRSA): +
- lytic activity on plates (in words) ([4]; S. aureus NRS-71): relatively weak clearing zones
- strength of lytic zone ([4]; S. aureus NRS-71, MRSA): +
- lytic activity on plates (in words) ([5]; S. epidermidis NRS-101): relatively weak clearing zones
- strength of lytic zone ([5]; S. epidermidis NRS-101, MRSE): +
- strength of lytic zone [6]: −
- Tm [2]: 44.8 °C
- strength of lytic zone [7]: −
- strength of lytic zone (Bacillus pumulis, BJ0055): −
- strength of lytic zone [8]: −
- strength of lytic zone [9]: −
- strength of lytic zone [10]: −
- strength of lytic zone [11]: −
- strength of lytic zone [12]: −
- strength of lytic zone [13]: −
- strength of lytic zone [14]: −
